Experimental data from US11905559B2, “Materials and methods for controlling gene expression” (priority 2016, dated 2024).

Tests used:
guanine-riboswitch = settings: previous in-line measurements; cited from earlier work
[1] = Constant-force / force-jump assay of the full-length riboswitch RNA; assay type: physicochemical
From the text: Moreover, as the successive traces were not reproducible, the anti-terminator conformation could not be assigned to the transitions. […] The function of the random structures can be presumed to destabilize the terminator hairpin and turn “ON” the gene expression. The un-bound trajectories are referred to as the “non-terminator” conformations to distinguish from the traditionally defined anti-terminator conformation. […] To assess the mode of allosteric modulation (tilt-equilibrium or induced-fit), the mechanical unfolding assay was performed in the presence of guanine salts ranging from 1 nM to 1 μM. […] Had this been the case, a gradual shift would have been observed in the equilibrium toward the terminator conformation according to the tilt-equilibrium model. […] Thus, at 16 pN, the terminator fluctuates between the open and the closed states, observed as Y*↔Y and Z*↔Z in FIG. 23A. […] The Keq˜0.1
[formula] implied that the hairpin preferred the open state (90%) at 16 pN (the Keq˜1 at 15.6 pN). The expression platform dynamics and the unfolding scheme are shown in FIGS. 27A-B. That the bi-stabilities are due to the terminator was further confirmed by subjecting the FL-mutant to similar cycles (FIG. 23B). […] The findings thus underscore that only the guanine induces a terminator conformation to the expression platform. Transition Y→Z* (ΔX=14±2.5 nm) indicated a complete unfolding of the aptamer (FIGS. 27A-B).
In a constant-force (CF) experiment, the RNA is held at a preset force through feedback control. The preset force typically fluctuated around the mean with a standard deviation ±0.15 pN. In this mode, data is recorded from 4-40 kHz to capture the fast intermediates. The plots are shown as extension vs. time (as in FIG. 6A). In force-jump (FJ) assay, the force is suddenly jumped from one force to another, and then held constant thereafter, as shown in FIGS. 23A-B.

[2] = Force-ramp mechanical assay of the full-length xpt leader mRNA; assay type: physicochemical
From the text: A dual-beam high-resolution optical tweezers was built that can detect short-lived fluctuations at sub-milliseconds (<0.25 msec) time scale at a single base pair level, with high precision and accuracy. This instrument was used to investigate the conformational dynamics of the full-length (FL) guanine-responsive riboswitch (guanine-riboswitch) and its 69-nt aptamer domain present in the 5′-UTR of an xpt-pbuX operon in B. subtilis. It has been shown that the xpt leader mRNA selectively downregulates the gene expression by transcription termination in the presence of guanine (FIG. 17B). The FL xpt mRNA was subjected to mechanical assays in order to identify the terminator and an anti-terminator conformation. […] The unfolding trajectory (red curve) indicated the melting of the 35-nt terminator hairpin at 16.1±0.5 pN (n=1200 traces) with a transition distance, ΔXt˜15±3 nm. A second transition at 17.9±0.9 pN with a distance, ΔXa˜25-30 nm indicated the unfolding of the 69-nt aptamer. […] The terminator mutant (FL-mutant, FIGS. 17D-E) abolished the 16.0 pN transition, thus supporting the structural assignment.
The forces on the bead were recorded at an acquisition rate of 44 kHz. Data was collected from the stereo phone jacks on the ADC boards of the Tweezers instrument and sent to the host computer audio input for analysis by SignalScope program (Faber Acoustical, LLC). As shown in the plot, power spectral density is fitted with the Lorentzian fit to yield the corner frequency (fc) that was used to calculate the trap stiffness. This setup was used to perform three different mechanical reactions: force-ramp (FR), constant-force (CF) and force-jump (FJ) under a controlled force. In the force-ramp (FR) experiment, the trap was moved at 200 nm/s, which corresponded to a loading rate 7-8 pN/s. […] The force-ramp data is plotted as force vs. extension curves (FEC).

For `Nc1nc(N)c2[nH]cnc2n1` [DAP, 2,6-diaminopurine], the Kd (guanine-riboswitch) is given as about 10 µM.

B1: FL xpt mRNA: full-length wild-type guanine riboswitch sequence comprising the aptamer domain and expression platform (SEQ ID NO: 12) (nucleic acid)
chain: AAUAUAAUAGGAACACUCAUAUAAUCGCGUGGAUAUGGCACGCAAGUUUCUACCGGGCACCGUAAAUGUCCGACUAUGGGUGAGCAAUGGAACCGCACGUGUACGGUUUUUUGUGAUAUCAGCAUUGCUUGCUCUUUAUUUGAGCGGGCAAUGCUUUUUUUAUUCUCAUAACGGAGGUAGACAGGAUG
modifications: aptamer_domain (14)..(82); expression_platform (83)..(188)
In the case of B1, the “Keq of terminator hairpin” value ([1]; 15.6 pN, +G) is reported as about 1, the “Keq of terminator hairpin” value ([1]; 16 pN, +G) is reported as about 0.1 and the “Terminator hairpin in the open state” value ([1]; 16 pN, +G) is reported as 90%. The “ΔX of transition Y→Z* (complete unfolding of the aptamer)” value ([1]; 16 pN, +G) was 14±2.5 nm, the “Change in extension of terminator open/closed bi-stabilities (Y*↔Y, Z*↔Z)” value ([1]; 16 pN, +G (FIG. 23A: 200 nM guanine)) was 15±1.7 nm and the “Force of second transition (unfolding of the 69-nt aptamer)” value ([2]; 1 μM guanine) was 17.9±0.9 pN. For the same molecule, the “Transition distance ΔXa (aptamer)” value ([2]; 1 μM guanine) was 25-30 nm, the “Transition distance ΔXt (terminator)” value ([2]; 1 μM guanine) was about 15±3 nm and the “Melting force of the 35-nt terminator hairpin” value ([2]; 1 μM guanine, n=1200 traces) was 16.1±0.5 pN.

B2: FL-mutant: full-length mutant guanine riboswitch sequence comprising the aptamer domain and expression platform (SEQ ID NO: 13) (nucleic acid)
chain: AAUAUAAUAGGAACACUCAUAUAAUCGCGUGGAUAUGGCACGCAAGUUUCUACCGGGCACCGUAAAUGUCCGACUAUGGGUGAGCAAUGGAACCGCACGUGUACGGUUUUUUGUGAUAUCAGCAUUGCUUGCUCUUUAUUUGAGCGGCGAAUCGUUUUUUUAUUCUCAUAACGGAGGUAGACAGGAUG
modifications: aptamer_domain (14)..(82); expression_platform (83)..(188)
In the case of B2, the “Terminator hopping (in words)” value ([1]; 75 traces, 200 nM guanine) is reported as “without exhibiting a terminator hopping” and the “16.0 pN terminator transition (in words)” value ([2]; force-extension curve) is reported as “abolished”.
